Measured values taken from PMC4005679, “In vitro assembly and activity of an archaeal CRISPR-Cas type I-A Cascade interference complex” (Nucleic Acids Research, 2014).

B1: Csa5 (recombinant, soluble) (natural protein, Thermoproteus tenax, UniProt G4RJZ0 1-130, looked up)
chain: MESVQLKKEELVERAARSVRPAVHLEMAYDVLDELSRSPEKYPEQLAKLSRIVVKVLNDVEDELEHNPQNEELQKARNRLAAWGGYVAELAKRLEEADDRERIRMVRLFCAMALAPDKLTVELKKLLKGR
notes: Csa5, subunit of the type I-A Cascade of Thermoproteus tenax Kra1 (genome FN869859); source: E. coli Rosetta2(DE3)pLysS, csa5 in pET24a(+), purified (heat precipitation 90°C, Hi Screen Blue FF, MonoQ)

Legend:
[1] = target: T1, Cas5a (recombinant, refolded) (Thermoproteus tenax, UniProt G4RJZ2 1-226); assay: SEC; six co-refolded Cascade subunits, incubated 30 min at 65°C, Superdex 200 10/300; fractions TCA-precipitated and analysed by SDS-PAGE; conditions: both partners purified
T1 construct: Cas5a of the type I-A Cascade of Thermoproteus tenax Kra1 (genome FN869859)
T1 sequence (looked up): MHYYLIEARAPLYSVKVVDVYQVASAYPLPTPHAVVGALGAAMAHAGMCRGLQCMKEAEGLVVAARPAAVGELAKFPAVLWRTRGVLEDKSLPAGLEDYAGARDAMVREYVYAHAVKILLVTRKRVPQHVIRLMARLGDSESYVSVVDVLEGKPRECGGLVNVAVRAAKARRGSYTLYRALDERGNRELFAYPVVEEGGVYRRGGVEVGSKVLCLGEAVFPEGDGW

[2] = target: T2, Cas7 purified via a His-SUMO-tagged fusion protein (Thermoproteus tenax, UniProt G4RJZ1 1-329); assay: as above; conditions: both partners purified
T2 construct: Cas7 of the type I-A Cascade of Thermoproteus tenax Kra1 (genome FN869859), full-length protein; also called Cas7-SUMO; monomeric Cas7; source: E. coli BL21-Gold(DE3)Star pRARE, purified (Ni-NTA, SUMO protease, HiTrap Heparin, Superdex 75)
T2 sequence (looked up): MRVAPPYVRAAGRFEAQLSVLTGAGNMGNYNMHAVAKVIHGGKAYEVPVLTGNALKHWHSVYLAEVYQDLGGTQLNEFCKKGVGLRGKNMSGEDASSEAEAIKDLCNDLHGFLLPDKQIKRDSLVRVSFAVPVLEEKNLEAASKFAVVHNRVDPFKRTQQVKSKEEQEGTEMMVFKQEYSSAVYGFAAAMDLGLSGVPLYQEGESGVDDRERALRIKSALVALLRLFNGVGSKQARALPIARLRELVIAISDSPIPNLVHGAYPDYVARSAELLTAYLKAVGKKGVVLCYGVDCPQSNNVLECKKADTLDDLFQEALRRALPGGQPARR

[3] = target: T3, Cas8a2 (recombinant, refolded) (Thermoproteus tenax, UniProt G4RJZ5 1-361); assay: as above; conditions: both partners purified
T3 construct: Cas8a2 of the type I-A Cascade of Thermoproteus tenax Kra1 (genome FN869859)
T3 sequence (looked up): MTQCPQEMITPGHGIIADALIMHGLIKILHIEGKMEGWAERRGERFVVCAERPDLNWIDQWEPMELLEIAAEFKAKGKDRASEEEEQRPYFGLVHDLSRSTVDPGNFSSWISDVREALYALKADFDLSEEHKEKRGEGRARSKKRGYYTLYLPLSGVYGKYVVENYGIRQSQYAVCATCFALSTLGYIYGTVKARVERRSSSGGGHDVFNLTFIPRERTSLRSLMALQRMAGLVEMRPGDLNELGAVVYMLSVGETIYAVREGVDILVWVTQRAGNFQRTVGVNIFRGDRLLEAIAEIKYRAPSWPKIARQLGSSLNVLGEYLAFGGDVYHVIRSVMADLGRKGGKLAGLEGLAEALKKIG

[4] = target: T4, Cas7 (Thermoproteus tenax Kra1, UniProt G4RJZ1 1-329); assay: EMSA; 4 uM Cas7, no competitor; nonspecific, similar shift with yeast RNA; 100 mM HEPES/KOH pH 7, 100 mM NaCl, 10 mM beta-mercaptoethanol, 50 ng yeast RNA, 30 min at 70 C (Cascade; 6% native TBE-PAGE); Cas7 alone without yeast RNA at 80 C, agarose gel; 2-4 nM labeled crRNA; conditions: protein: recombinant; tags: His-SUMO tag cleaved off; label: 5'-32P (EMSA); unlabeled in SEC; single strand
T4 sequence: T2 sequence (looked up)

Binder | binding result [1] | binding result [2] | binding result [3] | binding result [4]
B1 | binds | binds | binds | –
AUUGAAAGCGUUGAUGCGGCCGCGACUGGCUGACUCAGCUAUUACGUUGA (ssRNA, 5'-OH from hammerhead cleavage before labeling) [crRNA 5.2] | – | – | – | binds
